Reference: patent US20110097340A1 (SCHERING, published 2011)

T1: murine VEGF165 (murine, UniProt Q00731-2 27-190)
T1 construct: also called mVEGF165; rMu-VEGF165
T1 sequence (looked up): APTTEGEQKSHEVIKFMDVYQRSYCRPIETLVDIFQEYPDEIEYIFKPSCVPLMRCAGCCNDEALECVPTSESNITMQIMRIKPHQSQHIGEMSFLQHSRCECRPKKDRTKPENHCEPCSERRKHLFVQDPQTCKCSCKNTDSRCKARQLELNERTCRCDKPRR


What was measured:
human VEGF165 [1] = molecular target: T2, human VEGF165 (human, UniProt P15692 207-395); test: ELISA on hVEGF165; XPA.10.064.06 after thermal stress in the presence of methionine
T2 construct: Recombinant (R&D Systems 293-VE; sf21- or HEK 293-expressed depending on the assay); Biotinylated in the DELFIA assay; also called hVEGF165; rHu-VEGF165
Experimental: (§1) For chemical stress, the antibodies were incubated overnight at room temperature with 0.1% tBHP in the presence or absence of 5 mM L-methionine. For thermal stress, the antibodies were incubated in polysorbate for four weeks at 40° C. in the presence or absence of 5 mM L-methionine. The ability of the antibodies to bind hVEGF₁₆₅ was analyzed by Biacore and ELISA.

human VEGF165 [2] = molecular target: T2, human VEGF165; test: ELISA on hVEGF165; XPA.10.064.06 after chemical stress (tBHP) without methionine
Experimental: as §1

human VEGF165 [3] = molecular target: T2, human VEGF165; test: ELISA on hVEGF165; XPA.10.064.06 after chemical stress (tBHP) in the presence of methionine
Experimental: as §1

human VEGF165 [4] = molecular target: T2, human VEGF165; test: ELISA on hVEGF165; XPA.10.064.06 after thermal stress without methionine
Experimental: as §1

human VEGF165 [5] = molecular target: T2, human VEGF165; test: Biacore 2000, hVEGF165 amine-coupled on C1 chip, antibody injected, 1:1 fit
Experimental: (§2) The VEGF binding affinity of these IgGs was tested on a Biacore 2000® by injecting the antibodies over a very low density antigen surface. Human or murine VEGF₁₆₅ was immobilized via standard amine coupling methods to flow cells on a C1 (planar carboxy surface) chip. Approximately 85 RU of each antigen was immobilized and a reference flow cell was activated and blocked. Antibodies were injected over the chip surface for 400 seconds at two different concentrations, after which dissociation was monitored. Data was analyzed by Scrubber® using double referencing and fitting with a 1:1 interaction. Regenerations were performed with 90 mM HCl with 500 mM NaCl.
Target sequence in this assay (P15692 other isoform, or with tags, fused parts or gaps limits assumed): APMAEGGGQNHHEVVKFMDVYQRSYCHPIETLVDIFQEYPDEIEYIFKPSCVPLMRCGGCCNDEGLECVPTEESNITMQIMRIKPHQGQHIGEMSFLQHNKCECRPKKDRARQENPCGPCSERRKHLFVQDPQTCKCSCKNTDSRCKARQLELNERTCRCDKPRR

human VEGF165 [6] = molecular target: T2, human VEGF165; test: cell-based or functional assay
Target sequence in this assay (P15692 other isoform, or with tags, fused parts or gaps limits assumed): as above

human VEGF165 [7] = molecular target: T2, human VEGF165; test: ELISA on hVEGF165; unstressed XPA.10.064.06
murine VEGF165 [8] = molecular target: T1, murine VEGF165; test: Biacore 2000, mVEGF165 amine-coupled on C1 chip, antibody injected
Experimental: as §2

human VEGF165 [9] = molecular target: T2, human VEGF165; test: ELISA on hVEGF165; unstressed XPA.10.064.06; remark: listed apart in the source
murine VEGF165 [10] = molecular target: T1, murine VEGF165; test: sandwich ELISA, antibody coated
Experimental: Mutants were transiently expressed in CHO-K1 cells, and cell supernatants were collected for binding analysis by ELISA.
The plate was blocked with 30% ChemiBlock™ reagent (Millipore) in PBS for one hour at room temperature, and 30, 60, or 100 μl of CHO-K1 culture supernatant for each mutant, or 1 μg/ml of wild-type hVEGF₁₂₁, recombinant hVEGF₁₆₅, or recombinant mVEGF₁₆₅, was added to appropriate wells. After one hour of incubation, the plate was washed and incubated with a biotinylated goat polyclonal anti-VEGF antibody for one hour at room temperature. Detection was performed with HRP-conjugated streptavidin, followed by TMB chromogenic substrate (Calbiochem) using manufacturer protocol.

| Kd (human VEGF165 [5]) [nM] | koff (human VEGF165 [5]) [s⁻¹] | kon (human VEGF165 [5]) [M⁻¹ s⁻¹] | HUVEC proliferation, geometric mean IC50 (human VEGF165 [6]) [nM] | Binder | further results |
| --- | --- | --- | --- | --- | --- |
| – | – | – | – | XPA.10.064.06 after oxidation (chemical stress with tBHP or thermal stress) (antibody, V domains shown, partial methionine oxidation; after tBHP: Met-48 20%, Met-70 0%, Met-81 14%, Met-101 66%; degree after thermal stress not given, also called oxidized XPA.10.064.06) VH: EVQLVQSGAEVRKPGASVKVSCKASGYSFTGHYIHWVRQAPGQGLEWMGWINPYSGGTNFPREFQGRVTMTRDTSVNTVYMELTRLTSDDTSVYYCARDEMTRGGLDYWGQGTLVTVSS VL: SYVLTQPPSASGTPGQRVTISCSGSSSNIGINYVYWYQQLPGTAPKLLIYRNDQRPSGVPDRFSGSKSGTSASLAISGLRSEDEADYYCATWDDSLSGVVFGGGTKVTVL | EC50 (read off the curve) (human VEGF165 [1]): ~6 ng/mL; EC50 (read off the curve) (human VEGF165 [2]): ~50 ng/mL; EC50 (read off the curve) (human VEGF165 [3]): ~20 ng/mL; EC50 (read off the curve) (human VEGF165 [4]): ~10 ng/mL |
| 0.197 | 2.94e-05 | 150000 | – | XPA.10.064.04 IgG2 (antibody, V domains shown, IgG2) VH: EVQLVQSGAEVRKPGASVKVSCKASGYSFTGHYIHWVRQAPGQGLEWMGWINPYSGGTNFPREFQGRVTMTRDTSVNTVYMELTRLTSDDTSVYYCARDEMQNGGLDYWGQGTLVTVSS VL: SYVLTQPPSASGTPGQRVTISCSGSSSNIGINYVYWYQQLPGTAPKLLIYRNDQRPSGVPDRFSGSKSGTSASLAISGLRSEDEADYYCATWDDSLSGVVFGGGTKVTVL | – |
| 0.0917 | 1.8e-05 | 196000 | 0.174 | XPA.10.064.03 IgG2 (antibody, V domains shown, IgG2) VH: EVQLVQSGAEVRKPGASVKVSCKASGYSFTGHYIHWVRQAPGQGLEWMGWINPYSGGTNFPREFQGRVTMTRDTSVNTVYMELTRLTSDDTSVYYCARDQMVHGGLDYWGQGTLVTVSS VL: SYVLTQPPSASGTPGQRVTISCSGSSSNIGINYVYWYQQLPGTAPKLLIYRNDQRPSGVPDRFSGSKSGTSASLAISGLRSEDEADYYCATWDDSLSGVVFGGGTKVTVL | – |
| 0.121 | 2.07e-05 | 178000 | 0.173 | XPA.10.064.06 IgG2 (antibody, V domains shown, IgG2) VH: EVQLVQSGAEVRKPGASVKVSCKASGYSFTGHYIHWVRQAPGQGLEWMGWINPYSGGTNFPREFQGRVTMTRDTSVNTVYMELTRLTSDDTSVYYCARDEMTRGGLDYWGQGTLVTVSS VL: SYVLTQPPSASGTPGQRVTISCSGSSSNIGINYVYWYQQLPGTAPKLLIYRNDQRPSGVPDRFSGSKSGTSASLAISGLRSEDEADYYCATWDDSLSGVVFGGGTKVTVL | EC50 (read off the curve) (human VEGF165 [7]): ~6 ng/mL; Kd (murine VEGF165 [8]): 208 nM; EC50 (read off the curve) (human VEGF165 [9]): ~6 ng/mL |
| – | – | – | – | Bevacizumab (antibody, V domains shown) VH: EVQLVESGGGLVQPGGSLRLSCAASGYTFTNYGMNWVRQAPGKGLEWVGWINTYTGEPTYAADFKRRFTFSLDTSKSTAYLQMNSLRAEDTAVYYCAKYPHYYGSSHWYFDVWGQGTLVTVSS VL: DIQMTQSPSSLSASVGDRVTITCSASQDISNYLNWYQQKPGKAPKVLIYFTSSLHSGVPSRFSGSGSGTDFTLTISSLQPEDFATYYCQQYSTVPWTFGQGTKVEIK | Raw data (ELISA signal) (murine VEGF165 [10]): 0.0843 |
